Measurements reported in patent US20260234242A1 (HAINAN SIMCERE ZAIMING PHARMACEUTICAL, published 2026).

T1: monkey CDH6 protein (cynoCDH6 ECD-his) (monkey (cyno), UniProt A0A2K5TW62 19-615)
T1 construct: range 19-615; also called Cyno CDH6-his; not shown: his tag
T1 sequence: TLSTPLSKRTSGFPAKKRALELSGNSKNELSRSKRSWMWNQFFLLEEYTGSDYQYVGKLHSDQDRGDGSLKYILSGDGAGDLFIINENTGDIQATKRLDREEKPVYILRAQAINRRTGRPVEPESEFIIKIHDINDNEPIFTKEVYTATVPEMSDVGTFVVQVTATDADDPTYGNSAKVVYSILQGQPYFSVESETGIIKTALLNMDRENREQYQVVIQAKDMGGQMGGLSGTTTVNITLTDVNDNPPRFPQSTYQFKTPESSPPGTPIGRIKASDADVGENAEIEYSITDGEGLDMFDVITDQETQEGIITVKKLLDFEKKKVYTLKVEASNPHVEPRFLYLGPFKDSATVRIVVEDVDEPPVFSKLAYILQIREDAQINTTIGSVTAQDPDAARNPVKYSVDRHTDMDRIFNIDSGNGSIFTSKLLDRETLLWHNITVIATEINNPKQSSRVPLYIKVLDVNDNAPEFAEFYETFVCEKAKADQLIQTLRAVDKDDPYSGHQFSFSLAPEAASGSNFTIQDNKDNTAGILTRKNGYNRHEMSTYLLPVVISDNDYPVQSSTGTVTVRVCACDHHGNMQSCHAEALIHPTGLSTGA

T2: human CDH6 on tumor cells (OVCAR3 cells, PA-1 cells) (human, UniProt P55285 54-790)
T2 sequence: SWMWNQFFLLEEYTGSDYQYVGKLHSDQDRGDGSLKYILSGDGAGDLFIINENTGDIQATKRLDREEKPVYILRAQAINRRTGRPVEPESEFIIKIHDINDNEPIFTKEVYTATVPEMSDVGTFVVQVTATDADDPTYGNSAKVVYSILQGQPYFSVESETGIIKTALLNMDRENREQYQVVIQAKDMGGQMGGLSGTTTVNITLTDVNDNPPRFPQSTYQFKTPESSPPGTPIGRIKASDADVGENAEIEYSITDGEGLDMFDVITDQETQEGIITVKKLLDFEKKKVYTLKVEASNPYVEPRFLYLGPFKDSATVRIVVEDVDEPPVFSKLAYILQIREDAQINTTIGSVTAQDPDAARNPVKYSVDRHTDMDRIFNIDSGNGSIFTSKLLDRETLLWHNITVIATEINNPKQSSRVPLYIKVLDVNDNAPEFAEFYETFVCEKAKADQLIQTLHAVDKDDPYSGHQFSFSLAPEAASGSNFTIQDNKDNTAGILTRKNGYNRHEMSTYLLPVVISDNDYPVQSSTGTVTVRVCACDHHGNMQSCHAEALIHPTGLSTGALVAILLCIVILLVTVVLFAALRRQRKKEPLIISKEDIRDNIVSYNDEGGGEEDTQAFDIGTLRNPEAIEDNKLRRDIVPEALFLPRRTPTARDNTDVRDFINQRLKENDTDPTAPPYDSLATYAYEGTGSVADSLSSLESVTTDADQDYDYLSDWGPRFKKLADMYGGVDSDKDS

B1: CHI-CDH6-14 (antibody, human IgG1, kappa, V domains shown)
VH: QIQLQQSGPELVKPGTSVKISCKASGYTFTDNYINWVRQRPGQGLEWIGWIYPGTGNSYYNEKFKGKATLTVDTSSSTAYMQFSSLTSEDSAVYLCASSYGDSFDYWGQGTTLTVSS
VL: DIQMTQTTSSLSASLGNRVTISCRASQDIRNYLNWYQQKPDGTFKLLISYTSRLHSGVPSRFSGSGSGTDYSLTVSNLEPEDIATYYCQQYSQLPWTFGGGSRLEIKR
notes: also called CHI-hCDH6-14; CH1-CDH6-14
B2: CHI-CDH6-13 (antibody, human IgG1, kappa, V domains shown)
VH: DVQLQESGPGLVKPSQSLSLTCSVTGYSITKDSYWNWIRQFPGSKLEWMGFISYDGSRHYNPSLKNRISITRDTSKNQFFLQLNSVTTEDTATYYCARRDYADYWGQGTTLTVSS
VL: QIVLTQSPALMSAFPGEKVTMTCSATSSVSYIYWYQQKPRSSPKPWIYLTSNLASGVPARFSGSGSGTSYSLTINSLEAEDAATYYCQQWSSIPYTFGGGTKLEIKR
notes: also called chimeric antibody of murine CDH6-13
B3: NOV0712 (antibody, human IgG1, kappa, V domains shown)
VH: QVQLLESGGGLVQPGGSLRLSCAASGFTFSSHGMHWVRQAPGKGLEWVSVISGSGSNTGYADSVKGRFTISRDNSKNTLYLQMNSLRAEDTAVYYCARQWGSYAFDSWGQGTLVTVSS
VL: DIQMTQSPSSLSASVGDRVTITCRASQSISSYLNWYQQKPGKAPKLLIYAVSTLQSGVPSRFSGSGSGTDFTLTISSLQPEDFATYYCQQSGTFPPTTFGQGTKVEIKR
notes: Positive control, variable regions from WO2018212136A1; also called positive control anti-human CDH6 antibody
B4: DS-H01L02 (antibody, human IgG1, kappa, V domains shown)
VH: EVQLVQSGAEVKKPGASVKVSCKASGYTFTRNFMHWVRQAPGQGLEWMGWIYPGDGETEYAQKFQGRVTITADTSTSTAYMELSSLRSEDTAVYYCARGVYGGFAGGYFDFWGQGTLVTVSS
VL: DIQMTQSPSSLSASVGDRVTITCKASQNIYKNLAWYQQKPGKAPKLLIYDANTLQTGVPSRFSGSGSGSDFTLTISSLQPEDFATYFCQQYYSGWAFGQGTKVEIKR
notes: as for B3
B5: CHI-CDH6-12 (antibody, human IgG1, kappa, V domains shown)
VH: EVNLVESGGGLVQPGDSLTLSCSASGFTFTDYYMSWVRQFPGKALEWLALIRNKANSYTTEYSASVKGRFTISRDNSQSILYLQMNALRAEDSATYYCARDSYYSHDGFAYWGQGTLVTVSA
VL: DIVLTQSPASLAVSLGQRATISCRASKSVSTSSYTYMHWYQQKPGQPPKLLIKFASYLESGVPARFSGSGSGTDFTLNIHPVEEEDAATYYCQHSREFPFTFGTGTKLEIKR
notes: also called CH1-CDH6-12; chimeric antibody of murine CDH6-12

target: T1, monkey CDH6 protein (cynoCDH6 ECD-his); test: ELISA, coated antigen
Procedure: Human CDH6 protein (hCDH6 ECD-his, conventionally synthesized), monkey CDH6 protein (cynoCDH6 ECD-his, conventionally synthesized; the cynoCDH6 ECD sequence was derived from Uniprot #A0A2K5TW62 (19-615)), and murine CDH6 protein (mCDH6 ECD-his, conventionally synthesized; the mCDH6 ECD sequence was derived from Uniprot #P97326 (19-615)) were diluted with PBS to a final concentration of 1 μg/mL, and added to a 96-well ELISA plate at 100 μL/well. The plate was incubated at 4° C. overnight. The next day, the plate was washed 3 times with a plate washing solution (PBS+0.01% (v/v) Tween 20), and a blocking buffer (PBS+0.01% (v/v) Tween 20+2% (w/w) BSA) was added for blocking at room temperature for 2 h. The blocking buffer was discarded, and the plate was washed 3 times. The chimeric antibodies were diluted with 1% BSA+PBS (purchased from Cytiva, Cat. No. SH30264.01) and added to the 96-well plate at 50 μL/well. After incubation at 37° C. for 2 h, the plate was washed 3 times with a plate washing solution. […] The plate was incubated at 37° C. for 1 h and then washed 5 times with a plate washing solution. A TMB substrate (purchased from Seracare, Cat. No. 5120-0077) was added at 50 μL/well and incubated at room temperature for 10 min, then a stop solution (1.0 N HCl) was added at 50 μL/well. OD450 nm values were read using a microplate reader (Biotek). Analysis was performed by the GraphPad Prism software, data were fitted, and EC50 values were calculated. The chimeric antibodies tested all had strong binding to the human CDH6 protein, the monkey CDH6 protein, and the murine CDH6 protein.

EC50 [nM] | Max OD450 [OD450] | Binder
0.039 | 2.55 | B1
0.017 | 2.72 | B2
0.039 | 2.44 | B3
0.103 | 2.18 | B4
0.044 | 2.45 | B5

target: T2, human CDH6 on tumor cells (OVCAR3 …); test: FACS, OVCAR3 cells, 4° C. arm of endocytosis assay, antibody diluted to 10 µg/mL
Procedure: OVCAR3 cells were cultured until a confluence of 90% was reached, the medium was removed by pipetting, the cells were washed once with PBS, and then treated with an enzyme-free cell dissociation solution (Versene, purchased from Gibco, Cat. No. 15040-066) and the cells were collected. The cells were washed once with PBS, counted, resuspended to 2×10⁶ cells/mL in an FACS buffer (PBS+2% FBS), and then added to two 96-well plates at 50 μL/well. The chimeric antibodies were diluted with FACS buffer (PBS+2% FBS) to 10 μg/mL and separately added to the two 96-well plates at 50 μL/well, and the plates were incubated at 4° C. for 1 h. After the cells were washed 3 times with PBS, the cells were resuspended in an FACS buffer. One 96-well plate was incubated at 4° C. for 1 h, and the other 96-well plate was incubated at 37° C. for 1 h. […] After the plates were centrifuged and washed 2 times with PBS, the cells were resuspended in an FACS buffer. The mean fluorescence intensity (MFI) was measured using FACS Canton II (BD). The chimeric antibodies tested all had good endocytic activity.

MFI_4° C. [MFI] | Binder
9230 | B1
5970 | B2
6520 | B3
3830 | B4
5740 | B5
